In patent publication US20260374828 one finds IC50 data, which are given here for 4 molecules.

This experiment deals with Keap1 Kelch domain, Q14145. As to the kind of experiment: other TR-FRET. The conditions noted are these: modification not given. For orientation: Time-resolved FRET reads energy transfer from a long-lived donor to a nearby acceptor.
Keap1 Kelch domain, Q14145, sequence (Q14145 whole entry, the tested form may be a part): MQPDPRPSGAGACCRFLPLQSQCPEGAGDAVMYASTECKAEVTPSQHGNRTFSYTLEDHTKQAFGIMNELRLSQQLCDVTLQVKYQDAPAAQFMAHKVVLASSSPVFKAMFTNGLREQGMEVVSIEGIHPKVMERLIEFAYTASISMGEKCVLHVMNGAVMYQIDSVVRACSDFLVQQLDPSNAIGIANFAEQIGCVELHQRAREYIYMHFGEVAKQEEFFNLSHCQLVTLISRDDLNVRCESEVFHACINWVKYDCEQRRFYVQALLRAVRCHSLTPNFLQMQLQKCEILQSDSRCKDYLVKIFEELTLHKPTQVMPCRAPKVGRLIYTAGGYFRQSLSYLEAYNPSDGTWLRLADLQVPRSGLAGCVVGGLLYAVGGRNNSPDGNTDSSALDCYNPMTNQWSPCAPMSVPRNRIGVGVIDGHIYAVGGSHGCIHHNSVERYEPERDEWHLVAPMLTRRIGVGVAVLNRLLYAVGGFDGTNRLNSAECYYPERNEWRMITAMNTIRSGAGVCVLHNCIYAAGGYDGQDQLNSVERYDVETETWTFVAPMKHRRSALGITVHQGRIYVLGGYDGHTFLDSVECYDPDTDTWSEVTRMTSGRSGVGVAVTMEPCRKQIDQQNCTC
RDELEPLTGFRRR [Peptide 1-9]: the IC50 (usually the concentration that gives 50% inhibition) came to 14.7 nM.
Take DELEPLTGFRRR [Peptide 1-8]: the IC50 turned out to be 40.4 nM.
In the case of RRDELEPLTGFRR [Peptide 1-3], the IC50 was determined as 38.8 nM.
To DELEPLTGFRR [Peptide 1-7] belongs 6.2 nM.
